In test [1] the target is T1, human PD-1 expressed on CHO cells (human, UniProt Q15116 21-288).
T1 construct: also called CHO huPD1; CHO human PD1 cells
The experiment in a line: FMAT/Mirrorball on CHO huPD1 cells. How it is done:
(§1) Binding of His-tagged molecules to CHO human CD137, CHO parent and CHO human PD1 cells was assessed using Fluorescence Microvolume Assay Technology (FMAT). All reagents were prepared in FMAT assay buffer (pH 7.4) containing PBS, 0.1% Bovine Serum Albumin, 0.05% Sodium Azide. […] Fluorescence emission was then measured on the TTP Mirrorball plate reader in the FL2 (502 nm-537 nm) and FL5 (677-800 nm) channels following excitation at 488 nm and 640 nm. Data was gated on FL5 perimeter and peak intensity and the FL2 median mean fluorescence intensity of the gated data used for determination of VH binding. Monovalent CD137 specific Humabody® VH, and trispecific molecules with a CD137 binding arm bound to CHO CD137 expressing cells. Trispecific Humabody® VH, with a PD1 binding arm bound to PD1 expressing cells.

Test [2] deals with T2, human CD137 expressed on CHO cells (human, UniProt Q07011 18-255).
T2 construct: also called CHO huCD137; CHO human CD137 cells
Kind of test: FMAT/Mirrorball on CHO huCD137 cells. How it is done: as §1

B1: TPP-975: CD137D-6GS-PDA2-6GS-HSA2-His (bispecific antibody)
chain: EVQLVESGGGVVQPGGSLRLSCAASGFTFSNYGMHWVRQAPGKGLEWVAVISNDGNTKTYADSVKGRFTISRDNSKNTLYLQMNSLRAEDTAVYYCAQDETTTVTASYYFDYWGQGTLVTVSSGGGGSGGGGSGGGGSGGGGSGGGGSGGGGSEVQLVESGGGVVRPGGSLRLSCAASGFTFDDYAMSWVRQAPGKGLEWVSGITWNAGSTGYADSVKGRFTISRDNAKNSLYLQMNSLRAEDTALYYCVRDKYSYAWSYDDFDIWGQGTMVTVSSGGGGSGGGGSGGGGSGGGGSGGGGSGGGGSEVQLVESGGGLVKPGGSLRLSCAASGFTFSNYNMNWVRQAPGKGLEWVSSISSAGTHIYYADSVKGRFTISRDNAKNSLYLQMNSLRAEDTAVYYCARDPHSTGWYKDFDYWGQGTLVTVSSAAAHHHHHH
notes: Single-chain VH fusion (CD137 VH, PD-1 VH, HSA VH), His tag
As a reminder, the EC50 is the concentration needed to bring the measured effect to its halfway point. Read a high EC50 as lower potency in that assay. In the case of B1, the EC50 in test [1] worked out at 0.792 nM; in test [2], 0.39 nM.

B2: TPP-950: PDA2-6GS-172E1-13-6GS-HSA2-His (bispecific antibody)
chain: EVQLVESGGGVVRPGGSLRLSCAASGFTFDDYAMSWVRQAPGKGLEWVSGITWNAGSTGYADSVKGRFTISRDNAKNSLYLQMNSLRAEDTALYYCVRDKYSYAWSYDDFDIWGQGTMVTVSSGGGGSGGGGSGGGGSGGGGSGGGGSGGGGSEVQLVESGGGVVQPGGSLRLSCAASGFTFSNYGMHWVRQAPGKGLEWVAVISNDGNTKTYADSVKGRFTISRDNSKNTLYLQMNSLRAEDTAVYYCAQDETTTVTASYYFDYWGQGTLVTVSSGGGGSGGGGSGGGGSGGGGSGGGGSGGGGSEVQLVESGGGLVKPGGSLRLSCAASGFTFSNYNMNWVRQAPGKGLEWVSSISSAGTHIYYADSVKGRFTISRDNAKNSLYLQMNSLRAEDTAVYYCARDPHSTGWYKDFDYWGQGTLVTVSSAAAHHHHHH
notes: Single-chain VH fusion (PD-1 VH, CD137 VH, HSA VH), His tag
On to B2, for which the half-maximal effective concentration (EC50) worked out at 0.844 nM in test [1] and 0.735 nM in test [2].

B3: TPP-957; PD138G7(G109D)-6GS-172E1-13-6GS-HSA2-His (bispecific antibody)
chain: EVQLVESGGGVVRPGGSLRLSCAASGFTFDDYAMSWVRQAPGKGLEWVSGITWNGGSTGYADSVKDRFTISRDNAKNSLYLQMNSLRAEDTALYYCVRDKYSYAWSYDDFDIWGQGTMVTVSSGGGGSGGGGSGGGGSGGGGSGGGGSGGGGSEVQLVESGGGVVQPGGSLRLSCAASGFTFSNYGMHWVRQAPGKGLEWVAVISNDGNTKTYADSVKGRFTISRDNSKNTLYLQMNSLRAEDTAVYYCAQDETTTVTASYYFDYWGQGTLVTVSSGGGGSGGGGSGGGGSGGGGSGGGGSGGGGSEVQLVESGGGLVKPGGSLRLSCAASGFTFSNYNMNWVRQAPGKGLEWVSSISSAGTHIYYADSVKGRFTISRDNAKNSLYLQMNSLRAEDTAVYYCARDPHSTGWYKDFDYWGQGTLVTVSSAAAHHHHHH
notes: as for B2
Take B3: the figures for the EC50 in test [1] and in test [2] were 0.766 nM and 1.17 nM, respectively.

B4: TPP-951: PDA2-6GS-172E1-13-6GS-HSA3-His (bispecific antibody)
chain: EVQLVESGGGVVRPGGSLRLSCAASGFTFDDYAMSWVRQAPGKGLEWVSGITWNAGSTGYADSVKGRFTISRDNAKNSLYLQMNSLRAEDTALYYCVRDKYSYAWSYDDFDIWGQGTMVTVSSGGGGSGGGGSGGGGSGGGGSGGGGSGGGGSEVQLVESGGGVVQPGGSLRLSCAASGFTFSNYGMHWVRQAPGKGLEWVAVISNDGNTKTYADSVKGRFTISRDNSKNTLYLQMNSLRAEDTAVYYCAQDETTTVTASYYFDYWGQGTLVTVSSGGGGSGGGGSGGGGSGGGGSGGGGSGGGGSEVQLLESGGGLVKPGGSLRLSCAASGFTVSSYTMNWVRQAPGKGLEWVSSISSSGRYIYYADSVKGRFTISRDNAKNSLYLQMNSLRAEDTAVYYCARDPRMVGNPHEFDIWGQGTMVTVSSAAAHHHHHH
notes: as for B2
As to B4, the figures for the half-maximal effective concentration (EC50) in test [1] and in test [2] were 0.805 nM and 0.419 nM, respectively.

B5: TPP-958: PD138G7(G109D)-6GS-172E1-13-6GS-HSA3-His (bispecific antibody)
chain: EVQLVESGGGVVRPGGSLRLSCAASGFTFDDYAMSWVRQAPGKGLEWVSGITWNGGSTGYADSVKDRFTISRDNAKNSLYLQMNSLRAEDTALYYCVRDKYSYAWSYDDFDIWGQGTMVTVSSGGGGSGGGGSGGGGSGGGGSGGGGSGGGGSEVQLVESGGGVVQPGGSLRLSCAASGFTFSNYGMHWVRQAPGKGLEWVAVISNDGNTKTYADSVKGRFTISRDNSKNTLYLQMNSLRAEDTAVYYCAQDETTTVTASYYFDYWGQGTLVTVSSGGGGSGGGGSGGGGSGGGGSGGGGSGGGGSEVQLLESGGGLVKPGGSLRLSCAASGFTVSSYTMNWVRQAPGKGLEWVSSISSSGRYIYYADSVKGRFTISRDNAKNSLYLQMNSLRAEDTAVYYCARDPRMVGNPHEFDIWGQGTMVTVSSAAAHHHHHH
notes: as for B2
As to B5, the EC50 in test [1] came to 0.346 nM; in test [2], 0.499 nM.

B6: TPP-971: PDA2-6GS-HSA2-6GS-172E1-13-His (bispecific antibody)
chain: EVQLVESGGGVVRPGGSLRLSCAASGFTFDDYAMSWVRQAPGKGLEWVSGITWNAGSTGYADSVKGRFTISRDNAKNSLYLQMNSLRAEDTALYYCVRDKYSYAWSYDDFDIWGQGTMVTVSSGGGGSGGGGSGGGGSGGGGSGGGGSGGGGSEVQLVESGGGLVKPGGSLRLSCAASGFTFSNYNMNWVRQAPGKGLEWVSSISSAGTHIYYADSVKGRFTISRDNAKNSLYLQMNSLRAEDTAVYYCARDPHSTGWYKDFDYWGQGTLVTVSSGGGGSGGGGSGGGGSGGGGSGGGGSGGGGSEVQLVESGGGVVQPGGSLRLSCAASGFTFSNYGMHWVRQAPGKGLEWVAVISNDGNTKTYADSVKGRFTISRDNSKNTLYLQMNSLRAEDTAVYYCAQDETTTVTASYYFDYWGQGTLVTVSSAAAHHHHHH
notes: Single-chain VH fusion (PD-1 VH, HSA VH, CD137 VH), His tag
Turning to B6, the results for the EC50 in test [1] and in test [2] were 0.414 nM and 0.223 nM, respectively.

B7: TPP-942: PDA-6GS-172E1-13-6GS-HSA2-2-His (bispecific antibody)
chain: EVQLVESGGGLVQPGRSLRLSCAASGFTFDDYALHWVRQAPGKDLEWVSGISWNGGSYGYADSVKGRFTISRDNAKNSLYLQMNSLRAEDTALYYCVREKGPGLTGSTADYYGLDAWGQGTMVTVSSGGGGSGGGGSGGGGSGGGGSGGGGSGGGGSEVQLVESGGGVVQPGGSLRLSCAASGFTFSNYGMHWVRQAPGKGLEWVAVISNDGNTKTYADSVKGRFTISRDNSKNTLYLQMNSLRAEDTAVYYCAQDETTTVTASYYFDYWGQGTLVTVSSGGGGSGGGGSGGGGSGGGGSGGGGSGGGGSEVQLVESGGGLVKPGGSLRLSCAASGFTFSNYNMNWVRQAPGKGLEWVSSISSAGTHIYYADSVKGRFTISRDNAKNSLYLQMNSLRAEDTAVYYCARDPHSTGWYKDFDYWGQGTLVTVSSAAAHHHHHH
notes: Single-chain fusion of VH single domains (PD-1 VH, CD137 VH, HSA VH) joined by 6GS linkers, His tag
As for B7, the EC50 in test [1] stood at 0.164 nM; in test [2] it was 0.157 nM.

B8: TPP-1025: CD137A -6GS-HSA3-2-6GS-PDA2-His (bispecific antibody)
chain: EVQLVESGGGLVQPGGSLRLSCAASGFTLSNYWMNWVRQAPGKGLEWVANINQDGSERYYVDSVKGRFTISRDNAKNSLYLQMNSLRAEDTAVYYCARGGEGYGVDHYGLDVSGQGTTVTVSSGGGGSGGGGSGGGGSGGGGSGGGGSGGGGSEVQLLESGGGLVKPGGSLRLSCAASGFTVSSYTMNWVRQAPGKGLEWVSSISSSGRYIYYADSVKGRFTISRDNAKNSLYLQMNSLRAEDTAVYYCARDPRMVGNPHEFDIWGQGTMVTVSSGGGGSGGGGSGGGGSGGGGSGGGGSGGGGSEVQLVESGGGVVRPGGSLRLSCAASGFTFDDYAMSWVRQAPGKGLEWVSGITWNAGSTGYADSVKGRFTISRDNAKNSLYLQMNSLRAEDTALYYCVRDKYSYAWSYDDFDIWGQGTMVTVSSAAAHHHHHH
notes: Single-chain VH fusion (CD137 VH, HSA VH, PD-1 VH), His tag
As for B8, in test [1], the concentration for a half-maximal effect (EC50) was 1.23 nM.

B9: TPP-943: PDA-6GS-172E1-13-6GS-HSA2-His (bispecific antibody)
chain: EVQLVESGGGLVQPGRSLRLSCAASGFTFDDYALHWVRQAPGKDLEWVSGISWNGGSYGYADSVKGRFTISRDNAKNSLYLQMNSLRAEDTALYYCVREKGPGLTGSTADYYGLDAWGQGTMVTVSSGGGGSGGGGSGGGGSGGGGSGGGGSGGGGSEVQLVESGGGVVQPGGSLRLSCAASGFTFSNYGMHWVRQAPGKGLEWVAVISNDGNTKTYADSVKGRFTISRDNSKNTLYLQMNSLRAEDTAVYYCAQDETTTVTASYYFDYWGQGTLVTVSSGGGGSGGGGSGGGGSGGGGSGGGGSGGGGSEVQLLESGGGLVKPGGSLRLSCAASGFTVSSYTMNWVRQAPGKGLEWVSSISSSGRYIYYADSVKGRFTISRDNAKNSLYLQMNSLRAEDTAVYYCARDPRMVGNPHEFDIWGQGTMVTVSSAAAHHHHHH
notes: Single-chain VH fusion
As to B9, the EC50 in test [1] was 0.144 nM; in test [2] it was 0.207 nM.

Values taken from patent US20220220215A1 (CRESCENDO BIOLOGICS, published 2022).
